Assay results: a protein production outcome set (Wang et al. 2014)

Experiment: label from the status in PepcDB records

Sequence	protein production
MYYLFIFEMLWLLFVIVFVSFLSFSDFDRKKVNYFSVVIVGILLSITAGFRNVGGVDTDYAIYKNHYNGELGSYSYELFEPGYNTVVWLGNIVGLSFNLFVFILTSICLLLLLKLIFKYSKYPMLSVMIYLGTYFLFYNMVLMRQMVSVVMFLYCINYTIEKKYIKCLLCFLVGLSFHLSMIVFLPAFFVLRYFKLNIWNIIFILIIGVFLKIVGAINLVMFVGGVIESRMANYLAGDGFTLNIMEYIKMIIIICAILILFPKLIGDYFNEILIKSYCVFFILIFAFGDIEIFFRIAMYFDLVILFLIPILFDKISMTRFSRITIYTLVVIFFAFSFIYRVHNFDNGEFYQYKFFFLE	failed
MSIKVEDYFAPETFQRMKAFADKQETPFVVIDKQTIADAYDQLTDCFPFARIYYAVKANPATEITELLRDKGSNFDIASIYELDKVMKTGVGPERISYGNTIKKSKDIRYFYEKGVRLFATDSEADLRNIAKAAPGAKVYVRILTEGSTTADWPLSRKFGCQTDMAMDLLILARQLGLEPYGISFHVGSQQRDISVWDAAIAKVKVIFERLKEEDGIVLKMINMGGGFPANYITKTNDLETYAEEIIRFLKEDFGDDLPEIILEPGRSLIANAGILVSEVVLVARKSRTAVERWVYADVGKFSGLIETMDESIKFPIWTEKQGEMEEVVIAGPTCDSADIMYEHYKYGLPLNLASGDRLYWLSTGAYTTSYSAVEFNGFPPLKAFYL	failed
MRWVKAGELPMEAAYGATVSLPDRLIFIGGSNSSDRFSSVLSFSFDCMKDSGLICETLPPLPHAVDNMSATLLGDTLYVLGGNRNGIPSSSMFSLCLDNYSAGWTEVPFPGRPRVQPVCSSLLGKLYVFGGFTSGGDASVSTDGLCYHPESGQWQVVKAPLTTKGEPLTLTGGASVSYGDVLLICAGGVNRDIFEDAISARYQMVRESEYLLQPIEWYRFNDQLLAYNVRSGEWIRIGVPSPMLARAGSSLVVFGDILFYIGGELKPGVLEHHHHHH	failed
MCTKNETKPLPSFIEERLNFHIQDLIKSNENQKHLVLGKRPSENAVVMQSNDYLSLSHNELIQKAHRDAISERDDNVVMSAIFLQDDQSKPAFEHQLATFVGMESCLLSQSGWAANIGLLQTICAPNLPVYIDFFAHMSLWEGARTAGAQIHPFMHNNMNHLRKQIQRHGAGIIVVDSVYSTIGTIAPLRAIYEMAKEFDCGLVVDESHSLGTHGPEGSGLLQKLGLTQMVDFVTVSLAKTFAYRAGAILGPNKLAQSLPFVAYPAIFSSTVLPQEVVRLEKTLEVIKAADDKRECLFKRAKELAIGLKRIGFNIRSESQIIALECGSERNTERVRDFLEERDVFGAVFCRPATGRNKNIIRFSVNADMTAQQVDHVLSACQEAFDHPDLEFV	not failed
MTLRPDPTFYPSAKLAMEGPVEKLAFTLMLSPDASKPDGLAVVDVDPTSEKFGQIVHQLIMPNKGDEFHHFGWNACSSALSPLTGHAFLERRYLIIPGIRSSRIYIVDVKEPLKAKIHKIIEPEEVFAKTGYSRPHTIHCGPEGIYVSTLGGGGEDGTDGPPGIFILDCETFEILGRYEMDRGEQTKHYDFWWNLPRDYMVSSEWGLPPQFENGIVPEDLLSNKYGHKIHFWKLRDRKNVQTIDLGANHQMALEIRPAHDPSKDYGFCGVVVDTTNLQGAIFTWWQKDDGTFEAKKTITIDPVPADADDLPDLLKGFGACPPLVTDIDLSLDDKYLYVACWGLGEMHQYDVSDPMNPVLTGKVEIGGIVKKTPHPNGKTFGYGPQMVEISRDGKRVYWTNSLYSTWDEQFYPGDRGAAMVMANVGENGGLTLDKDFWVDFPAGYRSHQIRLEGGDCSTDSFCYPSV	failed
MSAPIEQPAWTKRMNANPQSQAAPVSAAQQDLQRLRTHLNTQIIGQSDLVDAMLIALLADGHMLVEGAPGLAKTRAIHVLSRGVEADFQRIQFTPDLLPADLTGTEVYRPQDGSFHFQPGPLFHNLVLADEINRSPAKVQSALLEAMAERQITVGRKTYPLPALFLVMATQNPIEQEGTYPLPEAQLDRFLMYVRIGYPGAEQEKAILRLVRGEAGRPECRAAEAMEPVSQQTLFSAREEVLGVYLAEALEDYLLQLILATREPARYGDSLARWILYGVSPRATLALDRCARARAWLDGRDYVTPDDIQALAPAILRHRLILSYEAEAEGVSSDQVVKDLLRRIAVP	failed
MTVEPFRNEPIETFQTEEARRAMREALRRVREEFGRHYPLYIGGEWVDTKERMVSLNPSAPSEVVGTTAKAGKAEAEAALEAAWKAFKTWKDWPQEDRSRLLLKAAALMRRRKRELEATLVYEVGKNWVEASADVAEAIDFIEYYARAALRYRYPAVEVVPYPGEDNESFYVPLGAGVVIAPWNFPVAIFTGMIVGPVAVGNTVIAKPAEDAVVVGAKVFEIFHEAGFPPGVVNFLPGVGEEVGAYLVEHPRIRFINFTGSLEVGLKIYEAAGRLAPGQTWFKRAYVETGGKDAIIVDETADFDLAAEGVVVSAYGFQGQKCSAASRLILTQGAYEPVLERVLKRAERLSVGPAEENPDLGPVVSAEQERKVLSYIEIGKNEGQLVLGGKRLEGEGYFIAPTVFTEVPPKARIAQEEIFGPVLSVIRVKDFAEALEVANDTPYGLTGGVYSRKREHLEWARREFHVGNLYFNRKITGALVGVQPFGGFKLSGTNAKTGALDYLRLFLEMKAVAERF	not failed
MIEFTALDDLSLLRESVSLECKLAQGRDGKGALPDDFWPTYSAMANTDGGIVILGVRERKGQFEVAGIENPDKLRTELFNHLNNRQKVSVNLLRDEDVRAWPVEGKTLLVVEIPRARRQQRPVYLRGNPLGGHTYRRLHEGDRPLPDEDVKRMLAEQVEDSRDERILPGYGLDDLHLESLRAYRQLFANRDPSHPWNALADQAFLRQIGGWRQHRETGEAGLTLAGLLMFGQWSSITEAVPLCFLDYQERPADYATTVQWLDRIVPDGTWSGNVFDFYRRVVGKLTADIKVPFVLKGDIRQDDTPTHKALREALVNTLVHADYTGRISVLVVKEPAGFVLRNPGGLRVPAQQALQGGMSDCRNRTMQQMFLMIGLGERAGSGMSRIVHGWRDLGHELHLRESYEPHEHSVLEMFWAKGRGATLASESSEESSEESSEETGKKILHLLREEPSLTASALARRLQLTPRAIEKQLEHHHHHH	not failed
MSSKRLVIVGGGITGLAAAYYAERAFPDLNITLLEAGERLGGKVATYREDGFTIERGPDSYVARKHILTDLIEAIGLGEKLVRNNTSQAFILDTGGLHPIPKGAVMGIPTDLDLFRQTTLLTEEEKQEVADLLLHPSDSLRIPEQDIPLGEYLRPRLGDALVEKLIEPLLSGIYAGNIDQMSTFATYPQFVANEQKAGSLFEGMRLMRPLDQLPQTPQTTIKATGQFLSLETGLESLIERLEEVLERSEIRLETPLLAISREDGRYRLKTDHGPEYADYVLLTIPHPQVVQLLPDAHLPELEQLTTHSTATVTMIFDQQQSLPIEGTGFVVNRRAPYSITACTAIDQKWNHSAPDHTVLRAFVGRPGNDHLVHESDEVLQQAVLQDLEKICGRTLEPKQVIISRLMDGLPAYTVGHADRIQRVREEVLAQYPGIYLAGLAYDGVGLPDCVASAKTMIESIELEQSHTDESVNET	not failed
SSISQQTIAETDGDSAGSDSFPVGRTHHRWYLCHFGQSLIHVIQVVIGYFIMLAVMSYNTWIFLGVVLGSAVGYYLAYPLLSTA	failed
MAEASIQIEVVYATVQRQVLMTVDVPAGSSVRQALALCGMDREFPELDLSHCPVGIFGKVVADPAARVLEAGERIEIYRPLLADPMEIRRLRAAKAREKRTLPG	failed
MQYINIANRGVKSLSPYQAGKPIEELERELGISNIVKLASNENPFGFPESAKKAIFEQLDKLTRYPDANGFELKQTIAKKFGVQPNQITLGNGSNDLLELFAHTFATEGDEIMYSQYAFIVYPLVTKAINAIVKEIPAKNWGHDLQGFLTALSDKTKLIYIANPNNPTGNFLTSQEIEDFLAEVPENVIVVLDEAYTEFTRSEERVDSFSLLKKYSNLIISRSLSKAYGLAGLRIGYAVSNPEIADLLNRVRQPFNCNSLALTAAVAVMNDDKFVEKVAENNRIEMRRYEDFCQKNQLDYIPSKGNFITIDFKQPAAPIYDALLREGVIVRPIAGYGMPNHLRISIGLPEENDKFFTALSKVLKFA	not failed
MAEVHVIGQIMGASGFSESSLFCKWGIHTGAAWKLLSGVREGQTQVDTPQIGDMAYWSHPIDLHFATKGLQGWPRLHFQVWSQDSFGRCQLAGYGFCHVPSSPGTHQLACPTWRPLGSWREQLARAFVGGGPQLLHGDTIYSGADRYRLHTAAGGTVHLEIGLLLRNFDRYGVEC	failed
MDLENNNNTPLTGKQAEKCAKKRKCVITLDEKQVESKRLKKEESNVEATSRPPAQSPKKRLHLNGKPMQNKDLNFKYGNYKHYYGKRILNKDFHDIRLDVLGTQPDLFRNKQLLDIGCNSGHLSIQIARKFEVKSLVGLDIDRGLINDAQKTVSHLKRHATPGQGIPHIQFVHGNYVLEDDVLLEIERPQFDVILCLSVTKWIHLNFCDSGLKQAFRRMYLQLRPGGKLILEPQSFDGYKRRKKLSEQIRDNYNAIKFRPDHFTEYLLSPEVGFAEMKLMGIPEHCKVGFKRPIQIFTKS	failed
MILIKKFATVASGTLMSRIFGFVREMLMAAALGTGPVSDAFNAAFRFPNTFRRFFAEGAFNAAFVPLFAKRITEDGQETACKFAEEVFGVLFSLLLLLTIAMELSMPFLVRTIIAPGFAEDATKFNATIHFTAIMFPYLTCMSLAAMMGGMLNALRRYFIAAIAPLFLNIILISVLAYAWIYQLDTWHIGLNLSWGVLAAGLLQLTLIAAALRQSGMKIFLRRPRFSSNVRKLLTLAFPAAITGGITQINLLINTNIASSQSGAVSSLMYADRLYQLPLGVIAIAIATVLLPELTRALRSKNHKETHNLQNRSIELTLLLTLPASVAFLILSTPIVSLLFERGQFTSLSTHYVAQLLKLYGLGLPAFVLIKIFIPNFFAHEDTKTPMIITGICVFINISLALILFPILSARGIVIAEITSGWMNALLLWTILIQRGYWKYDIQLIKRITCLIITTLLNTIALYYVFDVIDFLSFPLSSQASFFLRASTLAGIMVAILLVHCFAYFLLDTRSFFLTLKNFKKRL	failed
MFAHIGEDYVVNSSELLLIMSYDIFMSSEDNLRILESLKNEDRLVVINDDLKKSIIILEIDGRLYAIVSPVSSTTIAKRFLNFNYYVDNYLDESLEHHHHHH	not failed
MKAVVMAGGEGTRLRPMTANQPKPLLPVVNRPIMEHVLRLLKRHGFEDTVVTVQFLATLIRNYFGDGEELGMSLRYVAEEVPLGTAGSVKNAEEHLRGEPFIVISGDALTDIDLTDMVRFHRENGALVTIGLKRVANPLEFGIIIVDDNGRIQRFLEKPTWGQVFSDTVNTGIYIMEPEVLDHVAPGENVDWSGDVFPKLLKAGAPLYGYIADGYWEDVGTHESYLRAQADVLSGKVDVEIDGFEVSPGIWVAEGAEVDPEAVLKGPLYIGDYAKVEPGAELREFTVLGSNVVVRSEAFLHRAVVHDNVYVGTRANLRGCVVGKNTDIMAGVRIEEGTVVGEECVLESEAYLANNIKVYPFKTIEAGAVVNTNVIWESKGQRSLFGPRGVSGLINVEITPELAVRLASAYATTLKKGAVVTTARDASRAARTLKRAVISALTAAAINVQDLEATPLPLARFHTSQPGLSGGIALRTTPGDPQSVDIVFLDSSGADLSPAAQRKLERVFSRQEYRRAFPGEIAELSFPSRSVEAYTRELLQSIDLSGVAEANLKVVVDCAGGTGSLILPALLSQIDADVLTVNNRLDEASPTDTPAKRTRDLQRLGELVASARADFGVRFDPVGERIQLVDGSGTLVDDERALLVVLDLVAAERQGGRVALPVTTTRVAEQVANRHGVDVQWTPTSLDALTKAALADDIIFAADGRGGFILPEFSRTCDGIAAFVRLIGLVARTKMSLSQIDQRIPQAHLLRRSVPTPWAVKGSVMREVVEAAQGREIDTTDGVRVIEPDGSWALVLPDTAEAVTHLWAEGPDDETAQRLLEEWSAVVERAEG	failed
